According to the nanobody polyreactivity screen of Harvey et al. (2022):

Assay: yeast display, Sf9 membrane polyspecificity reagent, FACS + sequencing; frameworks hold sequencing errors
Summary of the method: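 Using colony PCR, genes from sorted yeast display clones were amplified, then sequenced on MiSeq at 2 × 250 and filtered by CDR length. The clones had been stained with 10% biotinylated, detergent-solubilized Sf9 membrane reagent for 1 hour at 4 °C and sorted by FACS into low and high (top ~1%) gates on anti-HA and streptavidin fluorescence. Polyreactivity labels come from the gate of origin.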

QVQLVESGGGLVQAGGSLRLSCAASGRIFFYAMGWYRQAPGKERELVASITTSGTSTYYADSVKGRFTISRDNAKNTVYLQMNSLKPEDTAVYYCNARVRYTVGPLSSLDGEYWGQGTQVTVSS
polyreactivity (PSR sort gate): low polyreactivity

QVQLVETGGGLVQAGGSHRLSCAASGYIFFGNAMGWYRQAPGKERELVASIRWRGTSTYYADSVKGRFTISRDNAKNTGYLHMNSLKPEDTAVYYCAADVVRSNFYGTFLYDYDYWGQGTQVTVSS
polyreactivity (PSR sort gate): low polyreactivity

QVQLVESGGGLVQAGGSLRLSCAASGFTFWKYSMGWYRQAPGKERELVATITSSGDNTYYADSVKGRFTISRDNAKNTVYLQMNSLKPEDTAVYYCAADNGYHYNFDYWGQGTQVTVSS
polyreactivity (PSR sort gate): low polyreactivity

QVQLVESGGGLVQAGGSLRLSCAASGSIFGKYVMGWYRQAPGKERELVAALTFGGGSTYYADSVKGRFTISRDNAKNTVSLQMNTLKPEETAVYYCAAKSYDDRLYRRPRDYWGQGTQVTLSS
polyreactivity (PSR sort gate): high polyreactivity

QVQLVESGGGLVQAGGSLRLSCAASGFIFSANAMGWYRQAPGKERELVAAISSRGTSTYYADSVKGRFTISRDYAKNTVYLQMNSLKPEDTGVYFCAADYYQAGTYVWMDYWGQGTQVTVSS
polyreactivity (PSR sort gate): high polyreactivity

QVQLVESVGGLVQAGGSLRLSCAASGIIFSCYAMGWYRQAPGKERELVAAISSSGGTTFYADSVKGRFTISRDNAKNTVYLQMNSLKPVDTAVYYCAVVGPPYYTWRVWRPAYDYWGQGTQVTVSS
polyreactivity (PSR sort gate): high polyreactivity

QVQLVESGGGLVQAGGSLRLSCAASGSIFLYNAMGWYRQAPGKERELVATITYIGGRTYYADSVKGRFTISRDNAKNTVYLQMNSLKPEDSAVYYCAAEYYVISSPSFYEYDYWGQGTQVTVSS
polyreactivity (PSR sort gate): low polyreactivity

QVQLVESGGGFVQAGASLRLSCAASGSIFRIYAIGWYRQAPGKERELVAAIDSGGSTNYADSVKGRFTISRDNAKNTVYLQMNSLKPEDTAVYYCNVDAWWLSYSEYDYWGQGTQVTVSS
polyreactivity (PSR sort gate): high polyreactivity

QVQLVESGGGLVQAGGSLRLSCAAYGRIFYRNVMGWYRQAPGKERELVAAITYRTGSTYYADSVKGRFTISRDNAKNTVYLQMNSLKPEDTAVYYCNVVPRNGQTWGYEYDYWGQGTQVTVSS
polyreactivity (PSR sort gate): high polyreactivity

QVQLVESGGGLVQAGGSLRLSCAASGRTFHRNAMGWYRQAPGKERELVAAITGDGRTNYADSVKGRFTITRDNAKNTVSLQMNSLKPEDTAVYYCFSYDYDYWGQGTQVTVSS
polyreactivity (PSR sort gate): low polyreactivity

QVQLVESGGGLVQAGGSLRLSCAASGRIFSANAMGWYRQAPGKERELVATISTGGGRTYYADSVKGRFTISRDNAKNTVYLQMNSLKPVDTAVYYCNATRNYARVRYYYWGQGTQVTVSS
polyreactivity (PSR sort gate): high polyreactivity

QVQLVDSGGGLVQAGGSLRLSCAASGSTFPIYAMEWYRQAPGKERELVAAISSGGSTYYADSVKGRFTISRDNAKNTVYLQMNSLKPEDTAVYYCAADYSQPNFEYYYWGQGTQVTVSS
polyreactivity (PSR sort gate): low polyreactivity

QVQLVESGGGLVQAGGSLRLSCAASGSIFGPYAMGWYRQAPGKERELVAAISRGSRTNYADSVKGRFTISRDNAKNTVYLQMNSLKPEDTAVYYCAARYVWRSTHHRGSTYDYWGQGTQVTVSS
polyreactivity (PSR sort gate): high polyreactivity

QVQLVESGGGLVQAGGSLRLSCAASGLIFSYNAMGWYRQAPGKERELVASISSGDSTNYADSVKGRFTISRDNAKNTVYLQMNSLKPEDTAVYYCNKVYSWGDYTPPFYFPYDYWGQGTQVTVSS
polyreactivity (PSR sort gate): low polyreactivity

QVQLVDSGGGLVQAGGSLRLSCAASGRTFYYYAMGWSRQEPGKEREFDADISGRGGTTYYADSVKGRFTISRDNAKKTVYLLMNSLKPEDTAVYYCAARSVSTLRYTSRKLRYDYWGQGTQVSVSS
polyreactivity (PSR sort gate): high polyreactivity

QVQVLESGGGLVQAGGSLRLSCAASGSIFDFYAMGWYRQAPGKDRELVAAISYRGGSTYADSVKGRFTISRDNAKNTVYLQMNSLKPEDTAVYYCAKVPDYRFEYWGQGTQVTVSS
polyreactivity (PSR sort gate): high polyreactivity

QVQLVESGGGLVQAGGSLRLSCAASGRTFWSNAMGWSRQAPGKERELVAAITWSGGSTSYADSVKGRFTISRDNAKNTVYLQMNSLKTEDTAVYYCAAGKGVELAKLDYWGQGTQVTVSS
polyreactivity (PSR sort gate): low polyreactivity

QVQLVESGGGLVQAGGSLRLSCAASGRTFFSNAMGWYRQAPGKERELVAAISNGDNTYFADSVKGRFTISRDNAKNTVYLQMNSLKPEDTAVYYCNTVRRSYWSWSTENSDYWGQGTQVTVSS
polyreactivity (PSR sort gate): low polyreactivity

QVQLVESGGGLVQAGGSLRLSCAASGFTFSSYDMGWYRQAPGKDRDLVAAIDFIDGSTYYADSVKGRFTISRDNAKKTVYLQKNSLKPEDTAVYYCAADPVFKVELWPVRVRVDYWGQGTQVTVSS
polyreactivity (PSR sort gate): low polyreactivity

QVQLVESGGGLVQAGGSLRLSCAASGFIFYGNAMGWYRPAPGKERELVAAIRWNGGRTYYADSVKGRFTISRDNAKNTVYLQMNSLKAEDTAVYYCAARISQLKYGYWGQGTQVTVSS
polyreactivity (PSR sort gate): high polyreactivity

QVQLVESGGGLVQAGGSLRLSCAASGSTFYRNAMGWYRQAPGKERELVAAISTRGSSTYYADSVKGRFTISRDNAKNTVYLQMNSLKPEDTAVYYCTADGIYPVLKFDYDYWGQGTQVTVSS
polyreactivity (PSR sort gate): low polyreactivity

QVQLVESGGGLVQAGGSLRLSCAASGFTFAVYAMGWSRQAAAKERELVAAISRSGTRTYYADSVKGRFTISRDNGKNTVYLQMNSLKPEDTAVYYFAAEVPDTDAYGYWGQGTQVTVSS
polyreactivity (PSR sort gate): low polyreactivity

QVQLVESGGGLVQAGGSLRLSCAASGRTCFPYAMGWYRQAPGKERELVDAISSGGRTNYADSVKGRFTISRDNAKNTVYLQMNSLKPEDTAVYYCAARGYLRLYSYDYWGQGTQVTVSS
polyreactivity (PSR sort gate): high polyreactivity

QVQLVESGGGLVQAGGSLRLSCAASGSIFYVYAMGWYRQAPGKERELVATISSSAGSTYYADSVKGRFTISRDNAKNTVYLQMNSLKPEDTAVYYCAAKVRYSLRKYYYWGQGTQVTVSS
polyreactivity (PSR sort gate): high polyreactivity

QVQLVESGGGLVQAGGSLRLSCAASGSIFEPYTMGWYRQAPGKERELVAAITGSGGSTFYADSVKGRFTISRDNAKNTVYLQMNSLKPEDTAVDYCNAYAYPYTDVDYWGQGTQVTVSS
polyreactivity (PSR sort gate): low polyreactivity

QVQLVESGVGLVQAGGSLRLICAASGSTFYYYAMGWYRQAPGKEREFVAAISSSTGSTYYADSVKGRFTISRDNAKNTVYLQLNSLKPEDTAVYYCNALTWYTSQDYDYWGQGTQVTVSS
polyreactivity (PSR sort gate): high polyreactivity

QVQLVESGGGLVQAGGSLRLSCAASGIIIWGNAMAWYRQAPGKERELVAAISSSSGSTYYADSVKGRFTISRDNAKNTVYLQMNRLKPVDTAVYYCAVDTPRSYRAQGAYYYWGQGTQVTVSS
polyreactivity (PSR sort gate): low polyreactivity

QVQLVESGGGLVQAGGSLRLSCAASGSIFYRYAMGWYRQAPGKERELVAAISSNGVSTYYADSVKGRFTISRDNAKNTVYLQMNSLKPEDTAVYCCARDVYASPRLYTSRYNYWGQGTQVTVSS
polyreactivity (PSR sort gate): low polyreactivity

QVQLVESGGGLVQAGGSLRLSCAASGYTFSYYAMGWYRQAPGKERELVARITYSGGSTYYADSVKGRFTISRDNAKNTVYLQMNSLKPEDTAVYFCAARLRYPYWYYNWGQGTQVTVSS
polyreactivity (PSR sort gate): high polyreactivity

QVQLVESGGGLVQAGGSLRLSCAASGILFGPYAKGWYRQAPGKERELVAVISGSGGSTNYADSVKGRFTISRDNGKYTVYLQMNSLKPEVTAVYYCAADSLSKVCYYYWGEGTQVTVSS
polyreactivity (PSR sort gate): low polyreactivity

QVQLVESGGGLVQAGGSLRLSCAASGSIFFWYTRGWYRQEPGKERQLVATITGSGSSTTYADSVKGRFTISRDNAKNSVYLQMNSLKPEDTAVYYCAAADIIDHSFPYDYWGQGTQVTVSS
polyreactivity (PSR sort gate): low polyreactivity

QFHLVESGGRLVQAGGSLRLSCAASGRIFYYYVMGWYRQAPGKERELVAVIDWSGGSTYYADSVKGRFTISRDNAKNTVYVQMNSLKPEDTAVYYCAKVWLNFSLAYEDYDYWGQGTQVTVSS
polyreactivity (PSR sort gate): low polyreactivity

QVHLVESGGGLVQAGGSLRLSCAASGRTFWLNAMGWYRQAPGKERELVATISSSSGSTTYADSVKGRFTISRDNAKNTVYLQINSLKPEDTAVYYCAVYSHKKVRPEYDYWGQGTQVTVSS
polyreactivity (PSR sort gate): low polyreactivity

QVQLVESGGGLVQAGGRLRLSCAASGIILYGYAMGWYRQAPGKARELVAAITWSGGSTYYADSVKGRFTISRDNAKNTVYLQMNSLKPEDTAVYYCAVDVHTSADASLPQEYDYWGQGTQVTVSS
polyreactivity (PSR sort gate): low polyreactivity

QVQIVESGGGLVQAGGSLRLSCASSGSTSYRNAMGWYRQAPGKEREFVASISKSTDSTYYADSVKGRFTISRDNAKNTVYLQMLSLKPEDTAVSYCADVQGYKGLQDDSWGQGTQVTVSS
polyreactivity (PSR sort gate): high polyreactivity

QVQLVESGGGLVQAGGSLRLSCAASGIIFGVYAMGWYREAPGKERELVAAISRSGDSTYYADSVKGRFTISRDNAKNTVYLQMNSLKPEDTAVYYCAAEWYFTFDYWGQGTQVTVSS
polyreactivity (PSR sort gate): low polyreactivity

QVQLLESGGGLVQAGGSRRLSCAASGSTFYGYAMGWYRQAPGKEREFVAAITTSGGSTYYADSVKGRFTISRDNAKNTVYLQMNSLKPEDTAVYYCAADAPSWYDRQYDYWGQGTQVTVSS
polyreactivity (PSR sort gate): low polyreactivity

QVQLQESGGGLVQAGGSLRLSCAASGYISQSSVMGWYRQASGKEREFVASISYGATTYYADSVKGRFTISRDNAKNTVYLQTNSPKPEDTAVYYCAVWVKRGFSHRYWGQGTQVTVSS
polyreactivity (PSR sort gate): high polyreactivity

QVQLVESGGGLVQAGGSLRLSCAASGGTFWYNAMGWYRQAPGKERELVANIRRSGDSTYYADSVKARFTISRDNAKNTVYLQMNSLKPEDTAVYYCAVSYTTYYHRYYYWGQGTQVTVSS
polyreactivity (PSR sort gate): high polyreactivity

QVQLVDSGGGLVQAGASLRLSCAASGSTLSYYTMGWYRQAPGKERELVAAISWRGGSTYYADSVKGRFTISRDNAKNTVYLQMNSLKPEDTAVYYCATAIRGSPDSSLYYYWGQGTQVTLSS
polyreactivity (PSR sort gate): high polyreactivity

QVQLVESGAGLVQAGGSLRLTCAASGSNFYYYAMGWYRQAPGKERELVAAINGGDTYYADSVKGRFTISRDNAKNTVYLQMNSLKPEDTAVFYCAAEGVTVEWDYDYWGQGTQVTVSS
polyreactivity (PSR sort gate): low polyreactivity

QVQLVESGGGLVQAGGSLRLSCAASGSTFRRYAMGWYRQAPGKERELVAAIRQRGTSTYYADSVKGRFTISRDNAKNTVYLQMNSLKPEDTAVYYCAAGPSLWLFNSWGQGTQVTVSS
polyreactivity (PSR sort gate): high polyreactivity

QVQIVESGGGLVQAGGSLRLSCAASGRIFGYNTMGWYRQAPGKERELVASISYYGGGPYYADSVKGRFTISRDLAKYTFYLQMNSLKPEDTAVYYCNALSYGYDDAYGYWGQGTQVTVSS
polyreactivity (PSR sort gate): low polyreactivity
